Laboratory results from patent US20030148445A1 (NATIONAL JEWISH MEDICAL AND RESEARCH CENTER, published 2003).

T1: RIP (UniProt Q13546 1-671, limits assumed)
T1 sequence (looked up): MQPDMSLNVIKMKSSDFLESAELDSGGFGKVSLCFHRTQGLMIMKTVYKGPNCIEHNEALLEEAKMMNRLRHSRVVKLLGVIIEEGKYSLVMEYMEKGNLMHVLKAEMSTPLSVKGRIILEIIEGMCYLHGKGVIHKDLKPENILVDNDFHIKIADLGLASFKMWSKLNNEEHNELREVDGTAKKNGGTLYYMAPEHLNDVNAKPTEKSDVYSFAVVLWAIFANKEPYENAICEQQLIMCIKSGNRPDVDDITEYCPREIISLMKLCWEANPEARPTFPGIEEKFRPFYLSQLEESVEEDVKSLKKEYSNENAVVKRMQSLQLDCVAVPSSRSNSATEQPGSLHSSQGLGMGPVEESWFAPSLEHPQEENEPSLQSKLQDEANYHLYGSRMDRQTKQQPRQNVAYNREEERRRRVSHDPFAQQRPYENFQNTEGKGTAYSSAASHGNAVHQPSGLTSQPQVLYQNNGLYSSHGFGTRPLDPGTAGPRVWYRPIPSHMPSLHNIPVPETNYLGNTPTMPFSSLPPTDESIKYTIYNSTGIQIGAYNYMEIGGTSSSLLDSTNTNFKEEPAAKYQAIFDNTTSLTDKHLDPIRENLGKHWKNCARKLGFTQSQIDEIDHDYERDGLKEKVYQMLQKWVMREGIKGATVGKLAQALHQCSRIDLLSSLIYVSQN

T2: TRAF2 (UniProt Q12933 1-501, limits assumed)
T2 sequence (looked up): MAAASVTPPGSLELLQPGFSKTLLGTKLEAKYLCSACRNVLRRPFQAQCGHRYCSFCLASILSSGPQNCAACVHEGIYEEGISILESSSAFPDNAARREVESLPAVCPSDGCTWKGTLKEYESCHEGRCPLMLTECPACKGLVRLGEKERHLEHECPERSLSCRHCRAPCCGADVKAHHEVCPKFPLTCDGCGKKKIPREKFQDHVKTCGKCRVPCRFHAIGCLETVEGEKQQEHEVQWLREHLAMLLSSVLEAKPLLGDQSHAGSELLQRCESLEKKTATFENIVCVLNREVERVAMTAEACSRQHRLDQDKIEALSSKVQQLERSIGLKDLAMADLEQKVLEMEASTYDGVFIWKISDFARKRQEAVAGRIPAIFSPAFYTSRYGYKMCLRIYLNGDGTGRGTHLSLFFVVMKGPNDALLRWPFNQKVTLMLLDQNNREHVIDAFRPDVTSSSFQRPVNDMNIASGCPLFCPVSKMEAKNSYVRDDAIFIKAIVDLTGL

T3: TRADD (UniProt Q15628 1-312, limits assumed)
T3 sequence (looked up): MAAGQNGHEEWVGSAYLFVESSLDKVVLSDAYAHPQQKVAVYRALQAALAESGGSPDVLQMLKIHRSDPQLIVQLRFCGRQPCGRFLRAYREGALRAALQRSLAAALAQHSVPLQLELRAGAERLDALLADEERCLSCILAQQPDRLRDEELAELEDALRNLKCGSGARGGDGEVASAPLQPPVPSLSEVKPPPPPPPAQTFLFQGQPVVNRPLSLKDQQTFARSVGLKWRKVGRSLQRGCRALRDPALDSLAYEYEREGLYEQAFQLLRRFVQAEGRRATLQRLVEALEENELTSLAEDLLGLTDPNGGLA


Assays:
RIP = molecular target: T1, RIP; assay: co-immunoprecipitation from transfected 293 cell lysates with anti-Flag antibody, Western blot with anti-HA antibody
Protocol: (§1) In the second portion of the experiment (See FIG. 10B), 293 cells were transfected with expression plasmids for HA-BCMA and the plasmids indicated in FIG. 10B. Transfected cell lysates were immunoprecipitated with anti-Flag antibody or control IgG. The immunoprecipitates were analyzed by Western blot with anti-HA antibody (FIG. 10B; upper panel).

TRAF2 = molecular target: T2, TRAF2; assay: as above
Protocol: as §1

TRADD = molecular target: T3, TRADD; assay: as above
Protocol: as §1

[1] = molecular target: T4, Flag-tagged sTALL-1 (Flag-sTALL-1) (human, UniProt Q9Y275 134-285); assay: co-immunoprecipitation with anti-HA antibody, Western blot with anti-Flag antibody
T4 construct: Secreted from 293 cells transfected with pSec-Flag-sTALL-1; used as conditioned medium or purified on an anti-Flag column; also called soluble TALL-1
Protocol: (§2) 24 hours after transfection, cells were lysed in 1.0 ml lysis buffer (20 mM Tris [pH 7.5], 150 mM NaCl, 1% Triton, 1 mM EDTA, 10 μg/ml aprotinin, 10 μg/ml leupeptin, 1 mM PMSF). […] The mixtures were split into 2 aliquots and each aliquot was incubated with 0.5 μg anti-HA monoclonal antibody (BABCO, Berkeley, Calif.) (FIG. 6A; lanes 2,4,6,8) or control mouse IgG (FIG. 6A; lanes 1, 3, 5, 7), and 25 μl of a 1:1 slurry of GammaBind G Plus Sepharose at 4° C. for 3 hours. The sepharose beads were washed three times with 1 ml lysis buffer containing 500 mM NaCl. The precipitates were analyzed by Western blot with anti-Flag antibody (FIG. 6A; upper panel). […] All conditioned medium was supplemented with 10 mM Tris (pH 7.5), 100 mM NaCl, 1 mM EDTA, 10 μg/ml aprotinin, 10 μg/ml leupeptin, and 1 mM PMSF before TH immunoprecipitation experiments. Western blots were performed as described above.

[2] = molecular target: T5, Flag-tagged soluble TRAIL (Flag-sTRAIL) (UniProt P50591 95-281, limits assumed); assay: as above
T5 construct: not shown: Flag tag
Protocol: as §2

[3] = molecular target: T4, Flag-tagged sTALL-1 (Flag-sTALL-1); assay: competition in flow cytometry on Bjab cells
Protocol: As described in Examples 2 and 3, cell staining was performed by sequential incubation (each 40 minutes) with anti-Flag monoclonal antibody (1 μg/ml) and RPE-conjugated goat anti-mouse IgG (1:200 dilution) in staining buffer (D-PBS containing 2% fetal bovine serum). Cells were washed two times with staining buffer following each incubation.

T5 sequence (P50591 95-281 limits assumed): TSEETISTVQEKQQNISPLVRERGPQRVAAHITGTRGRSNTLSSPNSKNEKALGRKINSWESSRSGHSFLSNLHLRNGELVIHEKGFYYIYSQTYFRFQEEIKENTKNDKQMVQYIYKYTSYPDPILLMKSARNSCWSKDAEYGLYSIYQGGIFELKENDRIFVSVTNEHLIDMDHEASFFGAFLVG

binding result (RIP)	binding result (TRAF2)	binding result (TRADD)	binding result [1]	binding result [3]	Binder	binding result [2]
no binding	no binding	no binding	binds	–	C-terminal HA epitope-tagged BCMA (BCMA-HA) (receptor, not shown: small tags and cut ends, also called HA-BCMA; B Cell Maturation Protein) MLQMAGQCSQNEYFDSLLHACIPCQLRCSSNTPPLTCQRYCNASVTNSVKGTNAILWTCLGLSLIISLAVFVLMFLLRKISSEPLKDEFKNTGSGLLGMANIDLEKSRTGDEIILPRGLEYTVEECTCEDCIKSKPKVDSDHCFPLPAMEEGATILVTTKTNDYCKSLPAALSATEIEKSISAR	no binding (tested: 0.1 µg recombinant Flag-sTRAIL)
–	–	–	–	binds	Flag-sBCMA-Fc secreted fusion protein (Fc fusion, Used as 50-fold concentrated conditioned medium of transfected 293 cells; also called soluble BCMA; not shown: N-terminal Flag tag; Fc fragment of immunoglobulin G1 (IgG1), from the pCMV1-Flag-Fc plasmid) MLQMAGQCSQNEYFDSLLHACIPCQLRCSSNTPPLTCQRYCNASVTNSVKGTNAILWTCLGL	–
